According to patent CN116355095A (SHANGHAI L&L VISION BIOPHARMACEUTICALS CO LTD, dated 2023):
Where a chain is given by its changes, count along the chain named. Values joined by “and” are separate entries in the source; they are usually repeats but may differ in a detail not shown here. Identical values can stand only once. Blank lines part the entries; values can stand above or below the binder they belong to.

What was measured:
人TIGIT-hFc [1] = target: T1, 人TIGIT-hFc (human, UniProt Q495A1 22-141; P01857 99-330 = IgG part, limits assumed); assay: blocking ELISA: Bio-CD155 on coated TIGIT-hFc; reference Ref2
T1 construct: extracellular domain;domain: IgG1 Fc区域; also called hTIGIT

人TIGIT-hFc [2] = target: T1, 人TIGIT-hFc; assay: blocking ELISA: Bio-CD155 on coated TIGIT-hFc; reference Ref1
CHO-K1-T1001细胞表达的人TIGIT [3] = target: T2, CHO-K1-T1001细胞表达的人TIGIT (human, UniProt Q495A1 22-244); assay: cell ELISA on fixed hTIGIT+ CHO-K1 cells
T2 construct: whole, on cells; also called hTIGIT+细胞; CHO-K1 TIGIT+细胞系
T2 sequence (looked up): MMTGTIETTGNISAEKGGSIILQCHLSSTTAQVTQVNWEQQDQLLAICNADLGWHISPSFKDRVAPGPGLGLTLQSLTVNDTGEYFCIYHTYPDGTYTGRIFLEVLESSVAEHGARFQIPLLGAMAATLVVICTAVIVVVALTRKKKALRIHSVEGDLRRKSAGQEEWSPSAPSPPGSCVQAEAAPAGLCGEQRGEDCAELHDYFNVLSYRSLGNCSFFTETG

CHO-K1-T1001细胞表达的人TIGIT [4] = target: T2, CHO-K1-T1001细胞表达的人TIGIT; assay: cell ELISA on fixed hTIGIT+ CHO-K1 cells; reference Ref2
[5] = target: T3, 人TIGIT重组蛋白 (hTIGIT; TIGIT-hFc 或 TIGIT-his) (human, UniProt Q495A1 22-141); assay: ELISA on coated hTIGIT
T3 construct: extracellular domain; not shown: C-terminal tag (-his, -hFc or -mFc)
T3 sequence (looked up): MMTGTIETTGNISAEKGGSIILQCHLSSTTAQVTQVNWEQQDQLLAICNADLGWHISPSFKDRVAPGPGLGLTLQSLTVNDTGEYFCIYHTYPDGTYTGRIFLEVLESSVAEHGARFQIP

恒河猴TIGIT-mFc [6] = target: T4, 恒河猴TIGIT-mFc (rhesus monkey; mouse, UniProt A0A5F8AKQ5 22-142; P01863 98-330 = IgG part); assay: ELISA on coated RhTIGIT-mFc
T4 construct: also called RhTIGIT-mFc; RhTIGIT

人TIGIT-hFc [7] = target: T1, 人TIGIT-hFc; assay: blocking ELISA: Bio-CD155 on coated TIGIT-hFc
恒河猴TIGIT-mFc [8] = target: T4, 恒河猴TIGIT-mFc; assay: ELISA on coated RhTIGIT-mFc; reference Ref2
恒河猴TIGIT-mFc [9] = target: T4, 恒河猴TIGIT-mFc; assay: ELISA on coated RhTIGIT-mFc; reference Ref1
[10] = target: T3, 人TIGIT重组蛋白 (hTIGIT; TIGIT-hFc 或 …); assay: ELISA on coated hTIGIT; reference Ref2
小鼠TIGIT-his = target: T5, 小鼠TIGIT-his (mouse, UniProt P86176 29-148, limits assumed); assay: ELISA on coated antigen (Example 3)
T5 construct: Bought reagent; also called mouse TIGIT-his; muTIGIT-his
T5 sequence: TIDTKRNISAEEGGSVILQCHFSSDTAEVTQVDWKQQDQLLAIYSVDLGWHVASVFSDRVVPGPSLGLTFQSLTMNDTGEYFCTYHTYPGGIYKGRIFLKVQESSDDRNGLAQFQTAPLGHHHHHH

CHO-K1-T1001细胞表达的人TIGIT [11] = target: T2, CHO-K1-T1001细胞表达的人TIGIT; assay: cell ELISA on fixed hTIGIT+ CHO-K1 cells; reference Ref1
人PD-1(hFc/his tag) = target: T6, 人PD-1(hFc/his tag) (human, UniProt Q15116 25-170); assay: ELISA on coated antigen
T6 construct: extracellular domain; not shown: C-terminal tag (hFc or his)

[12] = target: T3, 人TIGIT重组蛋白 (hTIGIT; TIGIT-hFc 或 …); assay: ELISA on coated antigen
LT023 (TIGIT/his) = target: T7, LT023 (TIGIT/his) (human, UniProt Q495A1 22-141); assay: double sandwich ELISA: coated TIGIT/his, detection with PD-L1/mFc (Example 6), used on serum samples
T7 construct: extracellular domain; Made in-house
T7 sequence: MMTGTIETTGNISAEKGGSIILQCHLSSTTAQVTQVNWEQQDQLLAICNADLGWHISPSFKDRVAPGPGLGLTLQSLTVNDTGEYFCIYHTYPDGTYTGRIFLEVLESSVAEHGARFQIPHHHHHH

T4 sequence (P01863 other isoform, or with tags, fused parts or gaps): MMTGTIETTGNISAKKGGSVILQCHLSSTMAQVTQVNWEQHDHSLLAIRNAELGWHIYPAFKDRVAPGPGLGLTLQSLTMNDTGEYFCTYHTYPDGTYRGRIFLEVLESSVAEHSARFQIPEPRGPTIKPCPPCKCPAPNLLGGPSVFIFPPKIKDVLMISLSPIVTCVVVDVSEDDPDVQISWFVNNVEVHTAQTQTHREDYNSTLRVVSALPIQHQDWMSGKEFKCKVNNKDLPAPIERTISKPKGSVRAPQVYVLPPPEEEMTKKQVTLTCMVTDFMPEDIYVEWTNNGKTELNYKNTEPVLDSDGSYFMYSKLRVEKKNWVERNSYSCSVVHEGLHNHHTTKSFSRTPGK
T6 sequence (Q15116 25-170): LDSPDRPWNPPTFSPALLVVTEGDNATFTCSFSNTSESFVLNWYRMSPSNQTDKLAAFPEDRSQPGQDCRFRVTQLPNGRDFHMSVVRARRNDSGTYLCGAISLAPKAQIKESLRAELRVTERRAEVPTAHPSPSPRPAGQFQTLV

- IC50 ratio to Ref2 (人TIGIT-hFc [1]): 0.51 fold
- IC50 ratio to Ref1 (人TIGIT-hFc [2]): 0.46 fold
- EC50 (CHO-K1-T1001细胞表达的人TIGIT [3]): 0.101 nM
- EC50 ratio to Ref2 (CHO-K1-T1001细胞表达的人TIGIT [4]): 0.47 fold
- EC50 [5]: 0.27 nM and 0.585 nM
- EC50 (恒河猴TIGIT-mFc [6]): 0.658 nM
- IC50 (人TIGIT-hFc [7]): 0.541 nM
- EC50 ratio to Ref2 (恒河猴TIGIT-mFc [8]): ~2 fold
- EC50 ratio to Ref1 (恒河猴TIGIT-mFc [9]): ~2 fold
- EC50 ratio to Ref2 [10]: 0.68 fold
B1: 嵌合抗体mab22c (antibody, human IgG1, kappa, V domains shown)
VH: EVKLVESGGGLVQPGGSLKLSCVASGFTFSSYTMSWVRQTPEKRLELVAEISSSGGSTYYPDTVKGRFTISRDNAKNTLFLQMNSLKSEDTAMYYCARPGLGAWFAYWGQGTLVTVSA
VL: DVLMTQTPLSLPVSLGDQASISCRSSQSIVHNSGNTYLEWYLQKPGQSPKLLIYKVSNRFSGVPDRFSGSGSGTDFTLKISRVEAEDLGIYYCFQFSHVPRTFGGGTKLEIKR
notes: also called 人鼠嵌合抗体mab22c

- binding result (小鼠TIGIT-his): no binding (tested: 10μg/mL起始，5倍梯度稀释)
B2: IF091 (鼠源单克隆抗体mab22) (antibody, V domains shown)
VH: B1 VH
VL: DVLMTQTPLSLPVSLGDQASISCRSSQSIVHNSGNTYLEWYLQKPGQSPKLLIYKVSNRFSGVPDRFSGSGSGTDFTLKISRVEAEDLGIYYCFQFSHVPRTFGGGTKLEIK
notes: Mouse antibody purified from ascites

- binding result (CHO-K1-T1001细胞表达的人TIGIT [3]): binds
- binding result [5]: binds
B3: 人源化抗体mab22-h2 (antibody, human IgG1, kappa, V domains shown)
VH: EVQLVESGGGLVQPGGSLRLSCAASGFTFSSYTMSWVRQAPGKGLEWVSEISSSGGSTYYPDTVKGRFTISRDNSKNTLYLQMNSLRAEDTAVYYCARPGLGAWFAYWGQGTLVTVSS
VL: B1 VL with L3V, T7S, S14T, L15P, D17E, Q18P, L88V, I90V, L109V
notes: hIgG1, kappa

- IC50 ratio to Ref1 (人TIGIT-hFc [2]): 0.44 fold
- EC50 (CHO-K1-T1001细胞表达的人TIGIT [3]): 0.0133 nM
- EC50 ratio to Ref1 (CHO-K1-T1001细胞表达的人TIGIT [11]): 0.5 fold
- IC50 (人TIGIT-hFc [7]): 1.44 nM
B4: 人源化抗体mab22-h6 (antibody, human IgG1, kappa)
heavy: not shown
light: DIVMTQSPLSLPVTPGEPASISCRSSQSIVHNSGNTYLEWYLQKPGQSPKLLIYKVSNRFSGVPDRFSGSGSGTDFTLKISRVEAEDVGVYYCFQFSHVPRTFGGGTKVEIKRTVAAPSVFIFPPSDEQLKSGTASVVCLLNNFYPREAKVQWKVDNALQSGNSQESVTEQDSKDSTYSLSSTLTLSKADYEKHKVYACEVTHQGLSSPVTKSFNRGEC
notes: hIgG1, kappa

- binding result (人PD-1(hFc/his tag)): binds
- binding result [12]: binds
B5: 双特异抗体LB610 (bispecific antibody, human IgG1, kappa)
heavy: not shown
light: B4 light

- binding result [12]: binds
B6: 双特异抗体LB615 (bispecific antibody)
heavy: not shown
light: B4 light

- binding result (LT023 (TIGIT/his)): binds
- binding result [12]: binds
B7: 双特异抗体LB621 (bispecific antibody)
heavy: not shown
light: B4 light
notes: Whole mab22-h6 antibody with an anti-PD-L1 (Atezo) scFv joined to its heavy chain; the printed heavy chain carries the scFv at the C-terminus with the last K changed to A

- binding result (CHO-K1-T1001细胞表达的人TIGIT [3]): binds
- binding result [5]: binds
B8: 人源化抗体mab22-h1 (antibody, human IgG1, kappa, V domains shown)
VH: B3 VH
VL: DIVMTQSPLSLPVTPGEPASISCRSSQSIVHNSGNTYLEWYLQKPGQSPQLLIYKVSNRFSGVPDRFSGSGSGTDFTLKISRVEAEDVGVYYCFQFSHVPRTFGGGTKVEIKR
notes: hIgG1, kappa
